Measurements as given in patent publication EP4653461A1 (DE NOVO BIOTHERAPEUTICS CO., LTD., dated 2025).
Positions count from the first letter of the chain named.

B1: u6506gj130-1-8 (1-8) (antibody, IgG4, V domains shown)
VH: QVQLQQPGAELVRPGTSVKLSCKASGYTFTSYWMHWVKQRPGQGLEWIGVIDPSDSYTNYNQKFKGKATLTVDTSSSTAYMQLSSLTSEDSAVYYCARSSSAYYSNYEAYWGQGTLVTVSA
VL: QIVLTQSPAIMSASPGEKVTISCSASSSVGYMFWYQQKPGSSPKPWIYRTSNLASGVPARFSGSGSGTSYSLTISSMEAEDAATYYCQQYHSYPPMWTFGGGTKLEIK
notes: Beacon screening clone; made as mouse/human chimeric IgG4
B2: u6506gj130-1-10 (1-10) (antibody, IgG4, V domains shown)
VH: QVQLQQPGAELVKPGASVKLSCKASGYIFTSYWMHWVKQRPGQGLEWIGMIHPNSGSTNYNEKFKSKATLTVDKSSSTAYMQLSSLTSEDSAVYYCAREGNWARGYFEYWGQGTTLTVSS
VL: DIKMTQSPSSMYASLGERVTITCKASQDINSYLSWFQQKPGKSPKTLIYRANRLVDGVPSRFSGSGSGQDYSLTISSLEYEDVGMYYCLQYDEFPYTFGGGTKLEIK
notes: as for B1
B3: u6506gj130-1-4-vk2 (1-4-2) (antibody, IgG4, V domains shown)
VH: DVQLQQSVAELVRPGASVNLSCTASGFNIKNTYMHWVKQRPEQGLEWIGMIDPANGNTKYAPKFQGKATITADTSSNTAYLHLSSLTSEDTAIYYCARWAYDGYYESYFDYWGQGTTLTVSS
VL: SIVMTQSPKFLLVSAGDRVTITCKASQSVSNDVAWYQQKPGQSPKLLIYYASNRYTGVPDRFTGSGYGTDFTFTISTVQAEDLAVYFCHQDYSSPFTFGSGTKLEIK
notes: as for B1
B4: 32C9F4 (2-2) (antibody, IgG4, V domains shown)
VH: QVQLQQPGAELVKPGASVKLSCKASGYTFTSYWMHWVKQRPGQGLEWIGMIHPNSGVTKYNEKFKSKATLTVDKSSSTAYMQLSSLTSEDSAVYFCAGDGRFAYWGQGTLVTVSA
VL: DIQMTQSPSSLSASLGERVSLTCRASQDIGSSLNWLQQEPDGTIKRLIYATSSLDSGVPKRFSGSRSGSDYSLTISSLESEDFVDYYCLQYASSPWTFGGGTKLEIK
notes: Hybridoma clone; made as mouse/human chimeric IgG4
B5: 8D5A6C1 (2-10) (antibody, IgG4, V domains shown)
VH: B4 VH with K19R, S25F
VL: B4 VL with S31N
notes: as for B4
B6: 45A10D5 (2-1) (antibody, IgG4, V domains shown)
VH: B4 VH with V57S, K59N, F95Y, A97V, G98Y
VL: B4 VL with W96F, G100S
notes: as for B4
B7: 28E10B12 (2-3) (antibody, IgG4, V domains shown)
VH: QVQLQQPGAELVKPGASVKLSCKASGYTFTSYWMNWVKQRPGQGLEWIGMIHPNSDITNYNEKFKSQATLTVDKSSSTAYMQLSSLTSEDSAVYYCARHGRFDYWGQGTTLTVSS
VL: B4 VL with S20T, W96F, G100S
notes: as for B4
B8: 21C9E9 (2-5) (antibody, IgG4, V domains shown)
VH: DVQLQESGPGLVKTSQSLSLTCSVTGYSITSDDYWNWIRQFPGNKLEWVGYISYDGSNNYNPSLKNRISITRDTSKNQFFLKLNSVTTEDTATYYCARLGYPAMDSWGQGTSVTVSS
VL: B2 VL with Y80F, V83L, M85I, Y96W
notes: as for B4
B9: 8A10C11 (2-7) (antibody, IgG4, V domains shown)
VH: B7 VH with Y27F, S31N, N35H, D56G, I57S, Q67K, R98G, H99G, F102L
VL: B4 VL with W96F, G100S
notes: as for B4
B10: u6506gj130-1-2 (1-2) (antibody, IgG4, V domains shown)
VH: EVQLQQSGPELVKPGASVKISCQASGYTFTDYYLNWVKQSHGKSLEWIGDIDPHNGGTSYNQKFKDKATLTVDKSSSTAYMELRSLTSEDSAVYYCARFPIYYSGSSPMDYWGQGTSVTVSS
VL: DIQMTQSPASLSASVGETVTITCRTNENIFSYLAWYQQKQGKSPQLLVYNAKTLAEGVPSRFSGSASGTQFSLKINTLQPEDFGSYYCQHHYGTPYTFGGGTKLEII
notes: Beacon screening clone; made as mouse/human chimeric IgG4 (mouse variable regions, human constant region)

target: T1, 6506GJ130-1A: Human NKP46 Recombinant Protein (His) (human, UniProt O76036 22-258, limits assumed); assay: competition ELISA, NKp46-His coated; competitor 1-4-2 at 20 ug/ml
T1 construct: also called human NKp46 protein; not shown: His tag
T1 sequence (O76036 22-258 limits assumed): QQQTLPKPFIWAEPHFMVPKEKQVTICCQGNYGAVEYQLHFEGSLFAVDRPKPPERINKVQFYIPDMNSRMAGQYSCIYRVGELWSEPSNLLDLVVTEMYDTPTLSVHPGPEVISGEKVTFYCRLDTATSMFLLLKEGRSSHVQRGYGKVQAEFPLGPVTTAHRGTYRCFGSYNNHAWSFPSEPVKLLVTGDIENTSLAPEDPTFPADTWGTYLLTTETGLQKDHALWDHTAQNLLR

Binder	ELISA signal
B1	1.18
B2	0.895
B3	0.082
B4	0.931
B5	0.724
B6	0.658
B7	1.09
B8	0.612
B9	0.637
B10	0.178

target: T1, 6506GJ130-1A: Human NKP46 Recombinant …; assay: competition ELISA, NKp46-His coated; competitor 2-7 at 20 ug/ml

Binder	ELISA signal
B1	1.39
B2	0.08
B3	0.686
B4	0.098
B5	0.123
B6	0.077
B7	0.2
B8	1.33
B9	0.093
B10	1.15

target: T1, 6506GJ130-1A: Human NKP46 Recombinant …; assay: competition ELISA, NKp46-His coated; no competitor (Control)

Binder	ELISA signal
B1	1.45
B2	1.6
B3	1.44
B4	1.34
B5	1.27
B6	1.63
B7	1.38
B8	1.31
B9	1.41
B10	1.54

target: T1, 6506GJ130-1A: Human NKP46 Recombinant …; assay: competition ELISA, NKp46-His coated; competitor 2-2 at 20 ug/ml

Binder	ELISA signal
B1	1.43
B2	0.086
B3	0.829
B4	0.093
B5	0.154
B6	0.087
B7	0.16
B8	1.28
B9	0.088
B10	1.23

target: T1, 6506GJ130-1A: Human NKP46 Recombinant …; assay: competition ELISA, NKp46-His coated; competitor 2-3 at 20 ug/ml

Binder	ELISA signal
B1	1.35
B2	0.092
B3	0.785
B4	0.092
B5	0.091
B6	0.093
B7	0.105
B8	1.27
B9	0.146
B10	1.28

target: T1, 6506GJ130-1A: Human NKP46 Recombinant …; assay: competition ELISA, NKp46-His coated; competitor 2-10 at 20 ug/ml

Binder	ELISA signal
B1	1.34
B2	0.097
B3	0.691
B4	0.096
B5	0.083
B6	0.1
B7	0.173
B8	1.3
B9	0.106
B10	1.24

target: T1, 6506GJ130-1A: Human NKP46 Recombinant …; assay: SPR, Biacore 8K, antibody captured on Protein A chip, NKp46 as analyte

Binder	Kd [nM]
B7	0.24 to 30

target: T1, 6506GJ130-1A: Human NKP46 Recombinant …; assay: competition ELISA, NKp46-His coated; competitor 1-2 at 20 ug/ml

Binder	ELISA signal
B1	1.61
B2	1.04
B3	0.1
B4	1.05
B5	0.998
B6	1.12
B7	1.24
B8	1.3
B9	1.1
B10	0.1

target: T1, 6506GJ130-1A: Human NKP46 Recombinant …; assay: SPR, Biacore 8K, antibody captured on Protein A chip, NKp46 as analyte; remark: another data set of the same source

Binder	Kd [nM]	koff [s⁻¹]	kon [M⁻¹ s⁻¹]
B1	11	0.00866	790000
B2	9.34	0.00229	246000
B3	18.3	0.0038	207000
B4	1.03	0.000542	527000
B5	1.29	0.000615	476000
B6	30	0.0113	376000
B7	0.244	0.000136	555000
B8	4.96	0.000116	23400
B9	2.78	0.00142	511000
B10	4.29	0.00012	27900

target: T1, 6506GJ130-1A: Human NKP46 Recombinant …; assay: competition ELISA, NKp46-His coated; competitor 1-10 at 20 ug/ml

Binder	ELISA signal
B1	1.45
B2	0.095
B3	0.662
B4	0.159
B5	0.176
B6	0.087
B7	0.408
B8	1.4
B9	0.133
B10	1.19

target: T1, 6506GJ130-1A: Human NKP46 Recombinant …; assay: competition ELISA, NKp46-His coated; competitor 2-5 at 20 ug/ml

Binder	ELISA signal
B1	0.197
B2	1.44
B3	0.852
B4	1.2
B5	1.13
B6	1.32
B7	1.43
B8	0.201
B9	1.24
B10	1.46

target: T1, 6506GJ130-1A: Human NKP46 Recombinant …; assay: competition ELISA, NKp46-His coated; competitor 2-1 at 20 ug/ml

Binder	ELISA signal
B1	1.4
B2	0.121
B3	0.764
B4	0.241
B5	0.245
B6	0.097
B7	0.649
B8	1.28
B9	0.204
B10	1.24

target: T1, 6506GJ130-1A: Human NKP46 Recombinant …; assay: competition ELISA, NKp46-His coated; competitor 1-8 at 20 ug/ml

Binder	ELISA signal
B1	0.111
B2	1.71
B3	1.24
B4	1.37
B5	1.3
B6	1.6
B7	1.43
B8	1.29
B9	1.4
B10	1.63
